According to US20210317225A1 (Genmab, published 2021):

Experiments:
[1] = molecular target: Human CD137 (TNR9_Human) (human, UniProt Q07011 24-255); test: cell-based or functional assay
[2] = molecular target: Human CD40 (human, UniProt P25942 21-277); test: cell-based or functional assay
Human CD40, sequence (P25942 21-277): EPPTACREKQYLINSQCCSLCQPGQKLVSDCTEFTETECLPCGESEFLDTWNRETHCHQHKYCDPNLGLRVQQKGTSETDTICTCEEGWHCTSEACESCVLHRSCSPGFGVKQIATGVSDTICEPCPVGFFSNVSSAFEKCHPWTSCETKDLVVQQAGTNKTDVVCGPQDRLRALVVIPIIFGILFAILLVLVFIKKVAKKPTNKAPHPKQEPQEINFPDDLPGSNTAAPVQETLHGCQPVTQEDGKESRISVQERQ

Human CD137 (TNR9_Human), sequence (Q07011 24-255): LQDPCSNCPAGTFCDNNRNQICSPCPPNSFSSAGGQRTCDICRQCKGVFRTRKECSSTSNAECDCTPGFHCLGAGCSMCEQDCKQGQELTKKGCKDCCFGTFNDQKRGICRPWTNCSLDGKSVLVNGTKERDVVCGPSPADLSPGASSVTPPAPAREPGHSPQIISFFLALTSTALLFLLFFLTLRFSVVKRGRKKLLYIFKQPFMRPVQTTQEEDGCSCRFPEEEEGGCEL

Row | luciferase activity (RLU) of NF-KB/293/GFP-Luc cells transduced with CD137, incubated with K562_CD40 [1] | luciferase activity (RLU) of NF-KB/293/GFP-Luc cells transduced with CD40, incubated with K562_CD137 [2] | EC50 for induction of T-cell proliferation (antigen-specific CD8+ T-cell assay, proliferation index curves) [1] | Binder
1 | ~100 ng/mL | ~100 ng/mL | – | CD40-001-FEALxCD137-001-FEAR (bispecific antibody, human IgG1, kappa) heavy 1: EVQLQQSGPDLVKPGASVKISCKTSGYTFTEYIMHWVKQSHGKSLEWIGGIIPNNGGTSYNQKFKDKATMTVDKSSSTGYMELRSLTSEDSAVYYCTRREVYGRNYYALDYWGQGTLVTVSSASTKGPSVFPLAPSSKSTSGGTAALGCLVKDYFPEPVTVSWNSGALTSGVHTFPAVLQSSGLYSLSSVVTVPSSSLGTQTYICNVNHKPSNTKVDKRVEPKSCDKTHTCPPCPAPEFEGGPSVFLFPPKPKDTLMISRTPEVTCVVVAVSHEDPEVKFNWYVDGVEVHNAKTKPREEQYNSTYRVVSVLTVLHQDWLNGKEYKCKVSNKALPAPIEKTISKAKGQPREPQVYTLPPSREEMTKNQVSLTCLVKGFYPSDIAVEWESNGQPENNYKTTPPVLDSDGSFLLYSKLTVDKSRWQQGNVFSCSVMHEALHNHYTQKSLSLSPGK light 1: DIQMTQTTSSLSASLGDRVTITCSASQGINNYLNWYQQKPDGTVKLLIYYTSSLHSGVPSRFSGSGSGTDYSLTISNLEPEDIATYYCQQYSNLPYTFGGGTKLEIKRTVAAPSVFIFPPSDEQLKSGTASVVCLLNNFYPREAKVQWKVDNALQSGNSQESVTEQDSKDSTYSLSSTLTLSKADYEKHKVYACEVTHQGLSSPVTKSFNRGEC heavy 2: QSVEESGGRLVTPGTPLTLTCTVSGFSLSSYAVSWVRQAPGKGLEWIGVIWNNGATHYATWAKGRFTISKASTTVDLKVTSPTTEDTATYFCARSANDAWSTYSDLWGQGTLVTVSSASTKGPSVFPLAPSSKSTSGGTAALGCLVKDYFPEPVTVSWNSGALTSGVHTFPAVLQSSGLYSLSSVVTVPSSSLGTQTYICNVNHKPSNTKVDKRVEPKSCDKTHTCPPCPAPEFEGGPSVFLFPPKPKDTLMISRTPEVTCVVVAVSHEDPEVKFNWYVDGVEVHNAKTKPREEQYNSTYRVVSVLTVLHQDWLNGKEYKCKVSNKALPAPIEKTISKAKGQPREPQVYTLPPSREEMTKNQVSLTCLVKGFYPSDIAVEWESNGQPENNYKTTPPVLDSDGSFFLYSRLTVDKSRWQQGNVFSCSVMHEALHNHYTQKSLSLSPGK light 2: DIVMTQTPASVEAAVGGTVTIKCQASQTITNYLSWYQQKPGQPPKLLIYKASTLTSGVSSRFKGSGSGTEFTLTISDLESDDAATYYCQNYYYGSSSGYGFVFGGGTEVVVKRTVAAPSVFIFPPSDEQLKSGTASVVCLLNNFYPREAKVQWKVDNALQSGNSQESVTEQDSKDSTYSLSSTLTLSKADYEKHKVYACEVTHQGLSSPVTKSFNRGEC
2 | ~100 ng/mL | ~100 ng/mL | – | CD40-001-FEALxCD137-007-FEAR (bispecific antibody, human IgG1, kappa) heavy 1: EVQLQQSGPDLVKPGASVKISCKTSGYTFTEYIMHWVKQSHGKSLEWIGGIIPNNGGTSYNQKFKDKATMTVDKSSSTGYMELRSLTSEDSAVYYCTRREVYGRNYYALDYWGQGTLVTVSSASTKGPSVFPLAPSSKSTSGGTAALGCLVKDYFPEPVTVSWNSGALTSGVHTFPAVLQSSGLYSLSSVVTVPSSSLGTQTYICNVNHKPSNTKVDKRVEPKSCDKTHTCPPCPAPEFEGGPSVFLFPPKPKDTLMISRTPEVTCVVVAVSHEDPEVKFNWYVDGVEVHNAKTKPREEQYNSTYRVVSVLTVLHQDWLNGKEYKCKVSNKALPAPIEKTISKAKGQPREPQVYTLPPSREEMTKNQVSLTCLVKGFYPSDIAVEWESNGQPENNYKTTPPVLDSDGSFLLYSKLTVDKSRWQQGNVFSCSVMHEALHNHYTQKSLSLSPGK light 1: DIQMTQTTSSLSASLGDRVTITCSASQGINNYLNWYQQKPDGTVKLLIYYTSSLHSGVPSRFSGSGSGTDYSLTISNLEPEDIATYYCQQYSNLPYTFGGGTKLEIKRTVAAPSVFIFPPSDEQLKSGTASVVCLLNNFYPREAKVQWKVDNALQSGNSQESVTEQDSKDSTYSLSSTLTLSKADYEKHKVYACEVTHQGLSSPVTKSFNRGEC heavy 2: QSLEESGGRLVTPGTPLTLTCTASGFSLSSYDVSWVRQAPGKGLEYIGFIGSDGSAHYATWVKGRFTISKTSTTVDLKITSPTTEDTATYFCARDWNDYWAHDLWGPGTLVTVSSASTKGPSVFPLAPSSKSTSGGTAALGCLVKDYFPEPVTVSWNSGALTSGVHTFPAVLQSSGLYSLSSVVTVPSSSLGTQTYICNVNHKPSNTKVDKRVEPKSCDKTHTCPPCPAPEFEGGPSVFLFPPKPKDTLMISRTPEVTCVVVAVSHEDPEVKFNWYVDGVEVHNAKTKPREEQYNSTYRVVSVLTVLHQDWLNGKEYKCKVSNKALPAPIEKTISKAKGQPREPQVYTLPPSREEMTKNQVSLTCLVKGFYPSDIAVEWESNGQPENNYKTTPPVLDSDGSFFLYSRLTVDKSRWQQGNVFSCSVMHEALHNHYTQKSLSLSPGK light 2: AQVLTQTTSPVSAAVGGTVTINCQASQIVTSKSALSWYQQKPGQPPRLLIYKASTLASGVPSRFSGSGSGTQFTLTISDLESDDAATYYCAGGYYNSGDLNPFGGGTEVVVKRTVAAPSVFIFPPSDEQLKSGTASVVCLLNNFYPREAKVQWKVDNALQSGNSQESVTEQDSKDSTYSLSSTLTLSKADYEKHKVYACEVTHQGLSSPVTKSFNRGEC
3 | ~100 ng/mL | ~100 ng/mL | – | CD40-001-FEALxCD137-006-FEAR (bispecific antibody, human IgG1, kappa) heavy 1: EVQLQQSGPDLVKPGASVKISCKTSGYTFTEYIMHWVKQSHGKSLEWIGGIIPNNGGTSYNQKFKDKATMTVDKSSSTGYMELRSLTSEDSAVYYCTRREVYGRNYYALDYWGQGTLVTVSSASTKGPSVFPLAPSSKSTSGGTAALGCLVKDYFPEPVTVSWNSGALTSGVHTFPAVLQSSGLYSLSSVVTVPSSSLGTQTYICNVNHKPSNTKVDKRVEPKSCDKTHTCPPCPAPEFEGGPSVFLFPPKPKDTLMISRTPEVTCVVVAVSHEDPEVKFNWYVDGVEVHNAKTKPREEQYNSTYRVVSVLTVLHQDWLNGKEYKCKVSNKALPAPIEKTISKAKGQPREPQVYTLPPSREEMTKNQVSLTCLVKGFYPSDIAVEWESNGQPENNYKTTPPVLDSDGSFLLYSKLTVDKSRWQQGNVFSCSVMHEALHNHYTQKSLSLSPGK light 1: DIQMTQTTSSLSASLGDRVTITCSASQGINNYLNWYQQKPDGTVKLLIYYTSSLHSGVPSRFSGSGSGTDYSLTISNLEPEDIATYYCQQYSNLPYTFGGGTKLEIKRTVAAPSVFIFPPSDEQLKSGTASVVCLLNNFYPREAKVQWKVDNALQSGNSQESVTEQDSKDSTYSLSSTLTLSKADYEKHKVYACEVTHQGLSSPVTKSFNRGEC heavy 2: QSVEESGGRLVTPGTPLTLTCTVSGFSLSSYAMSWVRQAPGKGLEWIGIISTSGITYYASWAKGRFTISKTSTMVDLKITSPTTEDTATYFCARLNGFDDYVRYFDFWGLGTLVTVSSASTKGPSVFPLAPSSKSTSGGTAALGCLVKDYFPEPVTVSWNSGALTSGVHTFPAVLQSSGLYSLSSVVTVPSSSLGTQTYICNVNHKPSNTKVDKRVEPKSCDKTHTCPPCPAPEFEGGPSVFLFPPKPKDTLMISRTPEVTCVVVAVSHEDPEVKFNWYVDGVEVHNAKTKPREEQYNSTYRVVSVLTVLHQDWLNGKEYKCKVSNKALPAPIEKTISKAKGQPREPQVYTLPPSREEMTKNQVSLTCLVKGFYPSDIAVEWESNGQPENNYKTTPPVLDSDGSFFLYSRLTVDKSRWQQGNVFSCSVMHEALHNHYTQKSLSLSPGK light 2: AIELTQTPSSVSAAVGGTVTINCQASESIASNLAWYQQKPGQPPKLLIYAASYLASGVPSRFKGSGSGTEYTLTISGVQSADAATYYCQSAFYVSSSDNAFGGGTEVVVKRTVAAPSVFIFPPSDEQLKSGTASVVCLLNNFYPREAKVQWKVDNALQSGNSQESVTEQDSKDSTYSLSSTLTLSKADYEKHKVYACEVTHQGLSSPVTKSFNRGEC
4 | ~100 ng/mL | ~100 ng/mL | 5 ng/mL | CD40-001-FEALxCD137-005-FEAR (bispecific antibody, human IgG1, kappa) heavy 1: EVQLQQSGPDLVKPGASVKISCKTSGYTFTEYIMHWVKQSHGKSLEWIGGIIPNNGGTSYNQKFKDKATMTVDKSSSTGYMELRSLTSEDSAVYYCTRREVYGRNYYALDYWGQGTLVTVSSASTKGPSVFPLAPSSKSTSGGTAALGCLVKDYFPEPVTVSWNSGALTSGVHTFPAVLQSSGLYSLSSVVTVPSSSLGTQTYICNVNHKPSNTKVDKRVEPKSCDKTHTCPPCPAPEFEGGPSVFLFPPKPKDTLMISRTPEVTCVVVAVSHEDPEVKFNWYVDGVEVHNAKTKPREEQYNSTYRVVSVLTVLHQDWLNGKEYKCKVSNKALPAPIEKTISKAKGQPREPQVYTLPPSREEMTKNQVSLTCLVKGFYPSDIAVEWESNGQPENNYKTTPPVLDSDGSFLLYSKLTVDKSRWQQGNVFSCSVMHEALHNHYTQKSLSLSPGK light 1: DIQMTQTTSSLSASLGDRVTITCSASQGINNYLNWYQQKPDGTVKLLIYYTSSLHSGVPSRFSGSGSGTDYSLTISNLEPEDIATYYCQQYSNLPYTFGGGTKLEIKRTVAAPSVFIFPPSDEQLKSGTASVVCLLNNFYPREAKVQWKVDNALQSGNSQESVTEQDSKDSTYSLSSTLTLSKADYEKHKVYACEVTHQGLSSPVTKSFNRGEC heavy 2: QSVEESGGRLVTPGTPLTLTCTASGFTISDFHVTWVRQAPGKGLEWIGTIITSASTTAYATWARGRFTISKSSTTVNLKIVSPTTEDTATYFCARSTYTDTSGYYFDFWGQGTLVTVSSASTKGPSVFPLAPSSKSTSGGTAALGCLVKDYFPEPVTVSWNSGALTSGVHTFPAVLQSSGLYSLSSVVTVPSSSLGTQTYICNVNHKPSNTKVDKRVEPKSCDKTHTCPPCPAPEFEGGPSVFLFPPKPKDTLMISRTPEVTCVVVAVSHEDPEVKFNWYVDGVEVHNAKTKPREEQYNSTYRVVSVLTVLHQDWLNGKEYKCKVSNKALPAPIEKTISKAKGQPREPQVYTLPPSREEMTKNQVSLTCLVKGFYPSDIAVEWESNGQPENNYKTTPPVLDSDGSFFLYSRLTVDKSRWQQGNVFSCSVMHEALHNHYTQKSLSLSPGK light 2: AQVLTQTASPVSAAVGGTVIINCQSSQSIYNGNRLSWYQQKPGQPPKLLIYSASTLASGVSSRFKGSGSGTQFTLAISDVQSDDAATYYCLGSYDCDSADCFAFGGGTEVVVERTVAAPSVFIFPPSDEQLKSGTASVVCLLNNFYPREAKVQWKVDNALQSGNSQESVTEQDSKDSTYSLSSTLTLSKADYEKHKVYACEVTHQGLSSPVTKSFNRGEC
